Columns and labels:
[1] = test system: MDA-MB-231 breast cancer cells; test: Direct cell binding assay, flow cytometry, MDA-MB-231; assay type: cell-based, human; details: for direct cell binding: 1 μM, 2.5 μM and 7.5 μM labeled protein; for relative cell binding ability: MDA-MB-231
Method: M-CSFM and two variants of M-CSFRGD (4.22 and 5.6) were labeled with a molar ratio of 1:1 of DyLight™ 488 NHS Ester (Thermo Fisher Scientific, USA) and the purified protein. The solution was incubated for 1 h at room temperature and the residual unbound dye was washed three times with Vivaspin (GE Healthcare life sciences, UK) with a 3,000 Da cutoff. […] MDA-MB-231 breast cancer cells were used for direct cell binding of the purified proteins. Cells were plated at a density of 10^5 per well in 96-well plates and were washed with […] of PBSA 0.1%. The cells were centrifuged at 150 g for 5 min, and the supernatant was removed; this step was repeated twice. Then, the labeled M-CSFRGD protein variants and the M-CSFM monospecific control were added in IBB+1% BSA to the cells at different concentrations (1, 2.5 and 7.5 μM) in a total volume of 100 μl and incubated at 4° C. with gentle agitation for 2 h. For c-FMS expression, the cells were stained with PE-anti human CD115 (BioLegend, USA) at a dilution of 1:50 and for αvβ3 integrin expression with FITC-anti human β3 integrin (BioLegend, USA) at a dilution of 1:25 for 30 min. Then, the cells were washed twice as described above and analyzed with Accuri C6 flow cytometry analyzer (BD Biosciences, USA). The mean fluorescence of the cells was subtracted from the other samples. The experiment was repeated three times at each concentration.
(§1) Assays for direct cell binding were conducted on breast cancer cell line MDA-MB-231 and murine primary cells with flow cytometer. MDA-MB-231 was used because the cells express αvβ3 integrin and c-FMS on the cell membrane, a protein expression pattern that imitates the osteoclast state just before reaching full differentiation and maturation. […] Murine primary cells that were obtained from bone marrow were tested for binding without any induction of differentiation (t=0). Such cells express high levels of c-FMS and low levels of αvβ3 integrin (FIGS. 11A and 11B), a state that imitates an early osteoclast differentiation stage.

[2] = test system: Murine bone marrow derived monocytes (BMMs); test: Direct cell binding assay, flow cytometry, murine primary cells; assay type: cell-based, mouse; details: for direct cell binding: mouse primary cells, 1 μM, 2.5 μM and 7.5 μM
Method: Murine bone marrow derived monocytes (BMMs) were obtained by flushing the bone marrow from the femur and tibia of WT C57BL6 mice. The cells were treated with ACK red lysis buffer (Thermo Fisher Scientific, USA) and plated on bacterial culture dishes in αMEM growth medium (Biological Industries, Israel) containing recombinant murine M-CSF (40 ng/ml) (R&D systems, USA). The cells were incubated for 3 days at 37° C. under 5% CO2 to induce monocyte adhesion and proliferation. The plates were washed with PBS, the cells were detached using a cell scraper, and 10^5 cells were transferred to each well in a 96-well plate. The cells were washed twice with 200 μl of 0.1% PBSA. Binding was determined as described for labeled M-CSFM and the M-CSFRGD proteins. For murine c-FMS expression, anti-mouse CD115 (CSF-1R) (BioLegend, USA) was used at 1:50 concentration and detected with goat anti-rat (PE) antibody (Abcam, USA). For αvβ3 integrin expression, the Alexa Fluor® 488 anti-mouse/rat CD61 (BioLegend, USA) antibody was used as previously described. Samples were analyzed with Accuri C6 flow cytometry analyzer (BD Biosciences, USA). The experiment was repeated three times at each concentration.
as §1

[3] = test system: human peripheral blood CD14+ monocytes differentiating to osteoclasts; test: Osteoclast differentiation assay of human CD14+ monocytes (TRAP staining); assay type: cell-based; details: Example 14, CD14+ cells; for osteoclast formation: 50, 250, 1000 nM with M-CSFWT and RANKL
Text: Differentiation assay—BMMs and CD14+ cells were obtained and grown as described above. The plates containing the monocytes were washed with PBS; the cells were detached using a cell scraper for BMMs or Accutase (Biological industries, Israel) for CD14^+; and 2×10^4 BMMs or 1×10^4 CD14^+ cells were transferred to each well in a 96-well plate. Osteoclast differentiation was induced as described in the ‘phosphorylation assay’ section. To determine the influence of M-CSFC31S and the M-CSFC31S,M27R on osteoclast differentiation, the proteins were added to the differentiation medium (with M-CSF and RANKL) in different concentrations (50 nM, 1 μM and 5 μM for BMMs and 50 nM, 250 nM and 1 μM for CD14^+). To determine the influence of human M-CSFWT on the differentiation, it was added to the cells in different concentrations (50 nM 1 μM and 5 μM) without adding murine M-CSFWT. Once the cells were fully differentiated, they were fixed with 4% paraformaldehyde and stained using the tartrate-resistant acid phosphatase (TRAP) staining kit (Sigma-Aldrich, USA) according to the manufacturer's protocol. As the positive control, cells were incubated with M-CSF and RANKL without inhibitors, and the negative control was comprised of cells that were incubated in differentiation medium without RANKL. […] Cells in each image were counted in a double-blind manner, and the number of nuclei in the osteoclasts was determined using ImageJ software. For the positive control of BMMs, an average of 28.33 osteoclasts and 135 nuclei per well were counted. For CD14^+ positive control, the average numbers of osteoclasts and nuclei were 14.5 and 75, respectively, per well. The results for each parameter were normalized to the positive control values.
In light of the above-described decrease in phosphorylation, it was hypothesized that incubation of M-CSFC31S,M27R with differentiating monocytes would result in decreased formation of osteoclasts. To test this premise, either BMMs or CD14^+ cells were incubated with murine or human M-CSFWT (20 ng/ml), respectively, and murine RANKL (20 ng/ml) together with M-CSFC31S and M-CSFC31S,M27R at concentrations of 50 and 1000 and 5000 nM for BMMs and 50, 250, 1000 nM for CD 14^+ cells. The cells were allowed to differentiate for 96 h or until they reached full differentiation. In BMMs incubated with M-CSFC31S, osteoclasts formed rapidly, and therefore they differentiated only for 72 h. Then, the cells were stained with a tartrate-resistant acid phosphatase (TRAP) staining kit (FIGS. 19A, B). […] This inhibition of differentiation behavior was observed also for M-CSFWT.

Molecule	direct cell binding [1]	relative cell binding ability [1]	direct cell binding [2]	relative cell binding ([2]; no induction of differentiation (t=0))	number of osteoclasts and number of nuclei [3]	osteoclast formation [3]
M-CSFM: 158 amino acid M-CSF with cysteine at position 31 replaced by serine (SEQ ID NO: 2) (protein) EEVSEYCSHMIGSGHLQSLQRLIDSQMETSSQITFEFVDQEQLKDPVCYLKKAFLLVQDIMEDTMRFRDNTPNAIAIVQLQELSLRLKSCFTKDYEEHDKACVRTFYETPLQLLEKVKNVFNETKNLLDKDWNIFSKNCNNSFAECSSQGHERQSEGS	showed binding	weakest binder	binding in a dose dependent manner	stronger cell binding than 5.6 and 4.22	the opposite result	highly accelerated in the two lower concentrations
M-CSFC31S,M27R: M-CSF double mutant containing both C31S and M27R; monomeric, monospecific c-FMS antagonist (protein) EEVSEYCSHMIGSGHLQSLQRLIDSQRETSSQITFEFVDQEQLKDPVCYLKKAFLLVQDIMEDTMRFRDNTPNAIAIVQLQELSLRLKSCFTKDYEEHDKACVRTFYETPLQLLEKVKNVFNETKNLLDKDWNIFSKNCNNSFAECSSQGHERQSEGS	–	–	–	–	a decrease in both parameters, in a dose-dependent manner	significantly inhibited, in a dose-dependent manner
5.6: bispecific M-CSFRGD variant from sort five; M-CSFM loop replaced by XXXRGDXXX motif; binds c-FMS and αvβ3 integrin (protein, left off: small tags and cut ends) EEVSEYCSHMIGSGHLQSLQRLIDTYPRGDMCSITFEFVDQEQLKDPVCYLKKAFLLVQDIMEDTMRFRDNTPNAIAIVQLQELSLRLKSCFTKDYEEHDKACVRTFYETPLQLLEKVKNVFNETKNLLDKDWNIFSKNCNNSFAECSSQGHERQSEGS	showed binding	best binding ability	binding in a dose dependent manner	–	–	–

From patent US11976099B2, “Compositions and methods for treatment of bone associated diseases” (THE NATIONAL INSTITUTE FOR BIOTECHNOLOGY IN THE NEGEV LTD., priority 2016, dated 2024)
